{"source": "patent US20250283117", "about": "“RNA-GUIDED NUCLEASES AND ACTIVE FRAGMENTS AND VARIANTS THEREOF AND METHODS OF USE” (Life Edit Therapeutics, Inc., published 2025)"}
{"tested_on": "T1, APG05459.1 (Enterococcus sp.)", "T1 sequence": "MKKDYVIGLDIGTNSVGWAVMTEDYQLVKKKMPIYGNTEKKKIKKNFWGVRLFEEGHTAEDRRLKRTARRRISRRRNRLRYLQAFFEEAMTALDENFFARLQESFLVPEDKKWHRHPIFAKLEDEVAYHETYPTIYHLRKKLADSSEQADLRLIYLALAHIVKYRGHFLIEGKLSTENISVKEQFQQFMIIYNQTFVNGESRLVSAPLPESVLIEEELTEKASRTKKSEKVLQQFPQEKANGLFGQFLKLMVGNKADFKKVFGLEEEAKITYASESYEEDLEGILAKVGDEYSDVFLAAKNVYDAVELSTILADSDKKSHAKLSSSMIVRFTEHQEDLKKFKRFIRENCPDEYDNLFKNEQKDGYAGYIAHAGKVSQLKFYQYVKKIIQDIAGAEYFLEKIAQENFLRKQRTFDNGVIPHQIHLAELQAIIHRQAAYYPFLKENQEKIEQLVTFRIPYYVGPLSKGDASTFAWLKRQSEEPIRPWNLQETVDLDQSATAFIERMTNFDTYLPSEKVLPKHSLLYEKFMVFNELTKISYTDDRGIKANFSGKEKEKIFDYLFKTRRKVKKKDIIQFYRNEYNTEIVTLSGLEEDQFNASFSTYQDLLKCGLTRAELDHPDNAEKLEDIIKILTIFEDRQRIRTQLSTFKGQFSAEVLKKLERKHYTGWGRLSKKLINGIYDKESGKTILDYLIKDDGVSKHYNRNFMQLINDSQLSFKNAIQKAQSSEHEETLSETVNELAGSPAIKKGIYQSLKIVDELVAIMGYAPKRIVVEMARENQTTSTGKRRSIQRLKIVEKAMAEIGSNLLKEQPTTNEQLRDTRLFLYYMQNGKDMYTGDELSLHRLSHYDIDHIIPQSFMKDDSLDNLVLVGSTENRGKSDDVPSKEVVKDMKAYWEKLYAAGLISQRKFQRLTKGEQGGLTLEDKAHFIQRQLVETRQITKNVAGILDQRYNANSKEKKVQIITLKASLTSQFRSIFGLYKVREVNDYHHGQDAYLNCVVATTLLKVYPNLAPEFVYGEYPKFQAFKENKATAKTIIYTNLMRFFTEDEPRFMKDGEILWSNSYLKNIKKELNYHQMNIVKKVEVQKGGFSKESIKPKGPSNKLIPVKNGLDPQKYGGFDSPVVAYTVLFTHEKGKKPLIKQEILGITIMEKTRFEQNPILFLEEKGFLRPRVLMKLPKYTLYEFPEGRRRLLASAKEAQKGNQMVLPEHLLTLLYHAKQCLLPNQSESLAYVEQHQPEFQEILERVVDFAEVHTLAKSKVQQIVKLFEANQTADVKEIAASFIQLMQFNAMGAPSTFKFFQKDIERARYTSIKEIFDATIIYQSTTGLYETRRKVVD", "experiment": "cleavage_in_vitro", "settings": "not given", "units": {"activity": "% cleaved"}}
{"sequence": "GAGCGGACAGCAGCUUCCUAUAUCUCGUACNNNNNNNNNNNNNNNNNNNNNNNNNGUUUUAGAGUCAUGUUAAAGAACAUAGCAAGUUAAAAUAAGGUUUUAACCGUAAUCAACUGUAAAGUGGCGCUGUUUCGGCGCUUUUUUUGUUU / GAGCGGACAGCAGCTTCCTAAATCTCGTAC / GTACGAGATTTAGGAAGCTGCTGTCCGCTC [Sequence 1 sgRNA for APG05459.1 ; target mismatch 10]", "activity": 52}
{"sequence": "GAGCGGACAGCAGCUUCCUAUAUCUCGUACNNNNNNNNNNNNNNNNNNNNNNNNNGUUUUAGAGUCAUGUUAAAGAACAUAGCAAGUUAAAAUAAGGUUUUAACCGUAAUCAACUGUAAAGUGGCGCUGUUUCGGCGCUUUUUUUGUUU / GAGCGGACAGCAGCTTCCTATAACTCGTAC / GTACGAGTTATAGGAAGCTGCTGTCCGCTC [Sequence 1 sgRNA for APG05459.1 ; target mismatch 8]", "activity": 51}
{"sequence": "GAGCGGACAGCAGCUUCCUAUAUCUCGUACNNNNNNNNNNNNNNNNNNNNNNNNNGUUUUAGAGUCAUGUUAAAGAACAUAGCAAGUUAAAAUAAGGUUUUAACCGUAAUCAACUGUAAAGUGGCGCUGUUUCGGCGCUUUUUUUGUUU / GAGCGGACAGCAGCTTCCTATATCTCGAAC / GTTCGAGATATAGGAAGCTGCTGTCCGCTC [Sequence 1 sgRNA for APG05459.1 ; target mismatch 3]", "activity": 3}
{"sequence": "GAGCGGACAGCAGCUUCCUAUAUCUCGUACNNNNNNNNNNNNNNNNNNNNNNNNNGUUUUAGAGUCAUGUUAAAGAACAUAGCAAGUUAAAAUAAGGUUUUAACCGUAAUCAACUGUAAAGUGGCGCUGUUUCGGCGCUUUUUUUGUUU / GAGCGGACAGCAGCTTCCTATATCTCGTAG / CTACGAGATATAGGAAGCTGCTGTCCGCTC [Sequence 1 sgRNA for APG05459.1 ; target mismatch 1]", "activity": 0}
{"sequence": "GAGCGGACAGCAGCUUCCUAUAUCUCGUACNNNNNNNNNNNNNNNNNNNNNNNNNGUUUUAGAGUCAUGUUAAAGAACAUAGCAAGUUAAAAUAAGGUUUUAACCGUAAUCAACUGUAAAGUGGCGCUGUUUCGGCGCUUUUUUUGUUU / GAGCGGACAGCAGCTTCCTATATCTCGTTC / GAACGAGATATAGGAAGCTGCTGTCCGCTC [Sequence 1 sgRNA for APG05459.1 ; target mismatch 2]", "activity": 74}
{"sequence": "GAGCGGACAGCAGCUUCCUAUAUCUCGUACNNNNNNNNNNNNNNNNNNNNNNNNNGUUUUAGAGUCAUGUUAAAGAACAUAGCAAGUUAAAAUAAGGUUUUAACCGUAAUCAACUGUAAAGUGGCGCUGUUUCGGCGCUUUUUUUGUUU / GAGCGGACAGCAGCTTCCTATATCTGGTAC / GTACCAGATATAGGAAGCTGCTGTCCGCTC [Sequence 1 sgRNA for APG05459.1 ; target mismatch 5]", "activity": 0}
{"sequence": "GAGCGGACAGCAGCUUCCUAUAUCUCGUACNNNNNNNNNNNNNNNNNNNNNNNNNGUUUUAGAGUCAUGUUAAAGAACAUAGCAAGUUAAAAUAAGGUUUUAACCGUAAUCAACUGUAAAGUGGCGCUGUUUCGGCGCUUUUUUUGUUU / GAGCGGACAGCAGCTTCGTATATCTCGTAC / GTACGAGATATACGAAGCTGCTGTCCGCTC [Sequence 1 sgRNA for APG05459.1 ; target mismatch 13]", "activity": 18}
{"tested_on": "T1, APG05459.1 (Enterococcus sp.)", "experiment": "cleavage_in_vitro", "settings": "PAM SEQ 41; blunt cut 3 from PAM (Table 3)", "units": {"activity": "% cleaved"}}
{"sequence": "GAGCGGACAGCAGCUUCCUAUAUCUCGUACNNNNNNNNNNNNNNNNNNNNNNNNNGUUUUAGAGUCAUGUUAAAGAACAUAGCAAGUUAAAAUAAGGUUUUAACCGUAAUCAACUGUAAAGUGGCGCUGUUUCGGCGCUUUUUUUGUUU / GAGCGGACAGCAGCTTCCTATATCTCGTAC / GTACGAGATATAGGAAGCTGCTGTCCGCTC [Sequence 1 sgRNA for APG05459.1 ; Sequence 1 target]", "activity": 67}
{"tested_on": "T1, APG05459.1 (Enterococcus sp.)", "experiment": "cleavage_in_vitro", "settings": "incompatible PAM", "units": {"activity": "% cleaved"}}
{"sequence": "GAGCGGACAGCAGCUUCCUAUAUCUCGUACNNNNNNNNNNNNNNNNNNNNNNNNNGUUUUAGAGUCAUGUUAAAGAACAUAGCAAGUUAAAAUAAGGUUUUAACCGUAAUCAACUGUAAAGUGGCGCUGUUUCGGCGCUUUUUUUGUUU / GAGCGGACAGCAGCTTCCTATATCTCGTAC / GTACGAGATATAGGAAGCTGCTGTCCGCTC", "activity": 0}
